Results published in patent US20230080224A1 (AGENCY FOR SCIENCE TECHNOLOGY AND RESEARCH, published 2023).

T1: human ALPPL2 (recombinant protein) (human, UniProt P10696 20-503)
T1 chain: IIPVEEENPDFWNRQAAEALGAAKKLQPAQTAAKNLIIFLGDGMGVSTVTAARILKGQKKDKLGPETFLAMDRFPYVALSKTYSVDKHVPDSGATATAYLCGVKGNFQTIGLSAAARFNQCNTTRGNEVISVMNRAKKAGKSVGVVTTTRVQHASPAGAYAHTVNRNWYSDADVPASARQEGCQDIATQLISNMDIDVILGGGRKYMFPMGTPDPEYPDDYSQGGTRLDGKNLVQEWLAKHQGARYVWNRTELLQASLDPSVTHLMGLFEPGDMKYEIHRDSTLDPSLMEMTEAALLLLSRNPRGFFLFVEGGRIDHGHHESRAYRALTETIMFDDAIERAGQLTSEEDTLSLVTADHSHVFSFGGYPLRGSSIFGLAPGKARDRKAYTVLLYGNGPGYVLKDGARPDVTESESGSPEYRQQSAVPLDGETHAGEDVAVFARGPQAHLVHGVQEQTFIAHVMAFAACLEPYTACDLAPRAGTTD

T2: human ALPI expressed on cells (human, UniProt P09923 20-503)
T2 construct: whole, on cells
T2 sequence (looked up): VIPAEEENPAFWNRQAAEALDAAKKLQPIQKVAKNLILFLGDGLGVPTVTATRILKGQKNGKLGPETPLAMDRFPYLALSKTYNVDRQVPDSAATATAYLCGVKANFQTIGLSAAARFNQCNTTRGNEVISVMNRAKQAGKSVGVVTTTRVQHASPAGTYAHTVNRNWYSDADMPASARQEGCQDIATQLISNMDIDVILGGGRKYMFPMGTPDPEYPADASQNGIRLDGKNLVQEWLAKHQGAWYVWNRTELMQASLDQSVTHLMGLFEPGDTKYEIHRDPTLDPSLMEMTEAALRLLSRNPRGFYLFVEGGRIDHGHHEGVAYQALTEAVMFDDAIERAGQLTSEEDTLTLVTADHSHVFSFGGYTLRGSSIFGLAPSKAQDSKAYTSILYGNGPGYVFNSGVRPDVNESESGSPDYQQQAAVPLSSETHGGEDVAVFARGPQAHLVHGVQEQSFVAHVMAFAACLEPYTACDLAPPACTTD

T3: human ALPL expressed on cells (human, UniProt P05186 18-501)
T3 construct: whole, on cells
T3 sequence (looked up): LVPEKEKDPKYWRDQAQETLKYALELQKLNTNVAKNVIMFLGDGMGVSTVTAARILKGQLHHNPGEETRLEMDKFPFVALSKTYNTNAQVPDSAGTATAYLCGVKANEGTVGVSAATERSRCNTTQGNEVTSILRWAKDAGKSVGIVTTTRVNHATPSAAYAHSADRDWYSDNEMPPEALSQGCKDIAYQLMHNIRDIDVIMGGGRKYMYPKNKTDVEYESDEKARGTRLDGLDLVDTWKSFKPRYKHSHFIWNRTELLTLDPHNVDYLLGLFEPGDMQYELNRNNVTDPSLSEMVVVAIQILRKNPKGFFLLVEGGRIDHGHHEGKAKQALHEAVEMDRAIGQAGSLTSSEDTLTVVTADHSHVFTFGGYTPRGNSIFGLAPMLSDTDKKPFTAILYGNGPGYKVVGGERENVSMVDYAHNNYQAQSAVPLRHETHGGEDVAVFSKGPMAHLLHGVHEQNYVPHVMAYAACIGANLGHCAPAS

T4: ALPI (screening and SPR/ELISA protein) (UniProt P09923 20-503, limits assumed)
T4 sequence (looked up): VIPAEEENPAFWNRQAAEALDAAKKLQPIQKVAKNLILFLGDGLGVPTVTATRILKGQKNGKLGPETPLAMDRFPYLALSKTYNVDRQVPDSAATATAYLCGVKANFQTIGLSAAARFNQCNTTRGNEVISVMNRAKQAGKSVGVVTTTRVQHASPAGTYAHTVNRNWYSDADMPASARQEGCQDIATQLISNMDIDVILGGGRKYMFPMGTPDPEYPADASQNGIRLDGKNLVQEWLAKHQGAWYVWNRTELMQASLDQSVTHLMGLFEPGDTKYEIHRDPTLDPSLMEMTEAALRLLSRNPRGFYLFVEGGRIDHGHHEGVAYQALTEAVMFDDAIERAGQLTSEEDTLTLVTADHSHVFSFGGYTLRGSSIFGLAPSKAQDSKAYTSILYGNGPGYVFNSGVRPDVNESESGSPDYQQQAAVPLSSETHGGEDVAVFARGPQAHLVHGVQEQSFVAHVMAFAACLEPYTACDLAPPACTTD


Tests used:
[1] = target: T5, human ALPPL2 expressed on cells (human, UniProt P10696 20-503); test: FACS (FIG. 13)
T5 construct: whole, on cells; also called placental-like alkaline phosphatase

[2] = target: T1, human ALPPL2 (recombinant protein); test: BLI
[3] = target: T6, human ALPP expressed on cells (human, UniProt P05187 23-506); test: FACS on transiently transfected 293T cells (FIG. 13A)
T6 construct: whole, on cells
T6 sequence (P05187 23-506): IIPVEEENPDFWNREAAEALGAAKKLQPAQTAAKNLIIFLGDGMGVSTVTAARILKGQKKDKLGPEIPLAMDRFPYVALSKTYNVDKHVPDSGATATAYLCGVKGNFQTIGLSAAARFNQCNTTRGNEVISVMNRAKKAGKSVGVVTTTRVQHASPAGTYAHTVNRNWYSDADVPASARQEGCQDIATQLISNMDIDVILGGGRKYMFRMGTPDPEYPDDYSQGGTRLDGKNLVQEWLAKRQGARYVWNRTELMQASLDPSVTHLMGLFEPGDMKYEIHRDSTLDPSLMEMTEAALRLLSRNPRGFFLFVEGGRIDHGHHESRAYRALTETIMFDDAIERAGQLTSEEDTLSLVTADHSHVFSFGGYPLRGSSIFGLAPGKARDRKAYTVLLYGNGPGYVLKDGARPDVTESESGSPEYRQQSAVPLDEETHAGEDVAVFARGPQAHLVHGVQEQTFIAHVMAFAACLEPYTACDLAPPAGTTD

[4] = target: T2, human ALPI expressed on cells; test: as above
[5] = target: T3, human ALPL expressed on cells; test: as above
[6] = target: human ALPP (recombinant protein) (human, UniProt P05187 23-506, limits assumed); test: biolayer interferometry, biotinylated ligand on SA biosensors (FIG. 12G)
human ALPP (recombinant protein), sequence (P05187 23-506 limits assumed): as the sequence (P05187 23-506) above
Method: Chimerized C53 is also cross-reactive towards rhesus macaque ortholog. Binding affinity of humanized C53 as compared to humanized C36 to ALPPL and ALPP was performed using Biolayer Interferometry. In this technique, biotinylated ligands (i.e. ALPPL2 or ALPP) were immobilized on SA biosensors. Ligands-loaded sensors were then incubated with different concentrations of analyte (recombinantly expressed humanized antibody clones) in the buffer.

[7] = target: T7, human ALPPL2 (recombinant protein) (human, UniProt P10696 20-503, limits assumed); test: SPR, Biacore T200, ligand captured by streptavidin on CM5 chip, antibody as analyte
T7 construct: biotinylated where captured on streptavidin
Method: Select clones (C4, C15, C131, C12, C18, C36 and C53) were humanized by grafting the CDRs to a human IgG1 framework. […] Surface plasmon resonance was studied using Biacore T200. Ligands (e.g. ALPPL2 or ALPP) were immobilized on biosensors CM5 chips captured with the streptavidin. Ligands-loaded sensors were then incubated with different concentrations of analyte (recombinant expressed humanized antibody clones) to measure affinity.

[8] = target: T5, human ALPPL2 expressed on cells; test: FACS (FIG. 12A)
[9] = target: T6, human ALPP expressed on cells; test: FACS (FIG. 12A)
[10] = target: T7, human ALPPL2 (recombinant protein); test: screen of rabbit B-cell clones by ELISA and FACS
Source text: (§1) Specific clones were screened and identified by ELISA and high throughput flow cytometry (FIG. 3). Rabbit kidney cells were transfected with either truncated (for ELISA screen) or full-length (for FACS screen) ALPI and ALPPL2.

[11] = target: T4, ALPI (screening and SPR/ELISA protein); test: screen of rabbit B-cell clones by ELISA and FACS
Source text: as §1

[12] = target: T1, human ALPPL2 (recombinant protein); test: BLI; single concentration

| Binder | binding result [1] | Kd [2] [pM] | binding result [3] | binding result [4] | binding result [5] | binding result [6] | binding result [7] | binding result [8] | binding result [9] | binding result [10] | binding result [11] | Kd [12] [pM] |
| --- | --- | --- | --- | --- | --- | --- | --- | --- | --- | --- | --- | --- |
| humanized C53 (antibody, human IgG1, V domains shown, CDRs grafted to a human IgG1 framework; recombinant; also called hC53) VH: EVQLVESGGGLVQPGGSLRLSCAASGFSFSSGYDMCWVRQAPGKGLEWIACIHSSSGTTYYASWAKGRFTISRDNSKNTLYLQMNSLRAEDTAVYYCARDFSYTDDYISYVYATDLWGQGTLVTVSS VL: DIQMTQSPSSLSASVGDRVTITCQASQSIGSSLAWYQQKPGKVPKLLIYAASYLASGVPSRFSGSGSGTDFTLTISSLQPEDVATYYCQSTYYSSSTDIRAFGQGTKVEIK | binds | 1000 | no binding | no binding | no binding | no binding | binds | – | – | – | – | – |
| AB1C4 (antibody, V domains shown, Rabbit antibody cloned from a single B cell; also called rabbit C4) VH: QSLEESGGDLVKPGPSLTLTCKASGFTISNNYWICWVRQAPGKGLEWIGCIATGDGSTYYASWAKGRFTISKTSSTTVTLQMTSLTAADTATYFCARGAAGSSWTTYFDFWGPGTPVTVSS VL: DIVMTQTPASVEAAVGGTVTIKCQAGQNIDNYLSWYQQKPGQPPKLLIYRASTLASGVPSRFKGSGSGTEFTLTISDLECADAATYYCQNNNGGSTFTGFPFGGGTEVVVK | – | – | – | – | – | – | – | binds | binds | binds | no binding | 1 |
